The target of assay [1] is 血清淀粉样蛋白A (Serum amyloid A, SAA) (UniProt P0DJI8). The assay can be described thus: indirect ELISA, SAA coated at 2 ug/ml, antibody at 7.5 ng/ml. (In an ELISA, binding on a coated surface is turned into a signal by an enzyme label.)
The target is the same in assay [2]. The assay can be described thus: indirect ELISA, SAA coated at 2 ug/ml, antibody at 30 ng/ml.
Assay [3] has the same target. Description: indirect ELISA, SAA coated at 2 ug/ml, antibody at 0 ng/ml (blank).
Assay [4] shares this target. Description: indirect ELISA, SAA coated at 2 ug/ml, antibody at 3.75 ng/ml.
Assay [5] shares this target. Description: BLI, antibody captured on AMC sensor, SAA in solution. Background: In BLI a coated tip is dipped into the sample, and binding shifts an interference pattern.
Assay [6] shares this target. The assay can be described thus: indirect ELISA, SAA coated at 2 ug/ml, antibody at 15 ng/ml.
Assay [7] has the same target. Description: indirect ELISA, SAA coated at 2 ug/ml, antibody at 60 ng/ml.

UniProt P0DJI8, sequence (P0DJI8 19-122 limits assumed): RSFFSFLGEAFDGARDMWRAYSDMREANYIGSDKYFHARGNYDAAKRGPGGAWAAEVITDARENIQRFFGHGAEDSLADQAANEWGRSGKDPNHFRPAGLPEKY

On to 对照 (control antibody), for which the OD (OD450 (ref. 630 nm)) in assay [1] turned out to be 0.562; in assay [2], 1.63; in assay [3], 0.009; in assay [4], 0.316; in assay [6], 0.912; in assay [7] it was 1.79. Besides, the Kd in assay [5] amounted to 7.98 nM. In assay [5], this substance returned a koff of 9.82e-05 s⁻¹. The same substance displayed a kon in assay [5] of 12300 M⁻¹ s⁻¹.

By Kd is commonly meant the constant that tells how readily two partners part at equilibrium. The koff is a measure of how fast the partners let go of each other. A higher koff goes with a short-lived complex. The term kon denotes a measure of how fast the partners come together.
